Results published in patent US20240279344A1 (CDR LIFE, published 2024).
Numbering of substitutions follows the chain as printed.

B1: M1335 (antibody, V domains shown)
VH: EVQLLESGGGSVQPGGSLRLSCTVSGFSLSNYAMSWVRQAPGKGLEWIGIVSSGGTTYYADSVKGRFTISKDTSKNTVYLQMNSLRAEDTASYYCAKDLYYGPSTYFVANLWGQGTSVTVSS
VL: SYELTQPPSVSVSPGQTASITCTADTLSRSYASWYQQKPGQSPVLVIYRDTSRPSGIPERFSGSNSGNTATLTISGTQAMDEADYYCATRPSSGSNFQLFGGGTKLTVL
notes: Variant with the HCDR2 motif SWA replaced by DSV
B2: M1342 (antibody, V domains shown)
VH: EVQLLESGGGSVQPGGSLRLSCTVSGFSLSNYAMSWVRQAPGKGLEWIGIVSSGGTTYYADSVKGRFTISKDTSKNTVYLQMNSLRAEDTASYYCAKDLYYGPNTDYSAANLWGQGTSVTVSS
VL: B1 VL with L99A
notes: as for B1
B3: M0739 (VHH)
VHH: EVQLVESGGGSVQPGGSLRLSCAASGFTFSRSTMSWVRQAPGKGLEWVSSISGSGGVTTYTTSVKGRFTISRDNAKNLMYLQMNSLNPEDTAVYYCANGDNRGPGTQVTVSS
notes: Llama-derived VHH; detected with anti-VHH (ELISA) or anti-Flag (flow)
B4: M0709 (Fab, V domains shown)
VH: QSVKESGGRLVTPGTPLTLTCTVSGFSLSNYAMSWVRQAPGKGLEYIGIVSSGGTTYYASWAKGRFTISKTSTTVDLKITSPTTEDTATYFCAKDLYYGPTTYSAFNLWGQGTLVTVSS
VL: SELVLTQPQSVSGSLGQTVSISCKRARDNIEDYYVHWYQQHPGKTPTIVIHKDDQRPSGVPDRFSGSIDSTSNSASLTITGLLAEDEADYFCQSFDNDASPVFGGGTQLTVTG
B5: M0742 (VHH)
VHH: EVQLVESGGGLVQPRGSLRLSCAASGFTFSNSGMSWVRQAPGKGLEWVSSISSGGSSTTYLDSVKGRFTISRDNAKNTLYLQMNSLKPEDTAVYYCSWADLRGRGTQVTVSS
notes: as for B3
B6: M0743 (VHH)
VHH: EVQLVESGGGLVQPGGSLRLSCVASGFTFSWYTMNWVRQAPGKGFEWVASIGSGGTPTTYRESVKGRFTISRDNAKSTLYLQMNSLKPEDTAVYHCENGQARGQGTQVTVSS
notes: as for B3
B7: M0747 (VHH)
VHH: EVQLVESGGGLAQAGGSLRVSCVASGRPFTKYAWGWFRQAPGKAREFVATITWDGGKTDYADSVKGRFTISKDSAENSIYLQMNSLKPEDTAVYYCAADRNYCVGHRCYVRPDDYDYWGQGTQVTVSS
notes: as for B3
B8: M0763 (Fab, V domains shown)
VH: B4 VH
VL: SELVLTQPASVQVNLGQTVSLTCTADTLSRSYASWYQLKPGQAPVLLIYRDTSRPSGVPDRFSGSSSGNTATLTISGAQAGDEGDYVCATSDGSGSNFQLFGGGTQLTVTG
notes: also called M763; parental M0763 antibody

Molecular target: T1, HLA-A2/MAGE-A4 complex, recombinant (HLA-A*02:01 extracellular domain, human b2m, MAGE-A4 peptide 230-239 …) (human, UniProt P04439 25-299 at identity 0.94); P61769 21-119)
T1 construct: also called MAGE-A4 pMHC; MAGE-A4/HLA-A2 complex
Test: SPR

Row | Binder | binding result
1 | B1 | binds
2 | B2 | binds

Molecular target: T2, control peptide 1 (…) displayed by HLA-A2 on T2 cells (human)
T2 construct: whole, on cells; also called Ctrl.1
Test: flow cytometry on peptide-pulsed T2 cells, relative MFI (binding over peptide loading)
Protocol: (§1) TAP-deficient T2 cells were pulsed with HLA-A2-restricted peptides (MAGE-A4 or control peptides) and incubated with MAGE-A4 binders followed by fluorophore-labeled specific detection antibodies and analysis by flow cytometry.
(§2) Briefly, T-B hybrid T2 cells were incubated with serum-free RPMI1640 medium containing MAGE-A4 or control peptides. […] Peptide loading efficiency was verified by using the ratio between median fluorescent intensity (MFI) of HLA-A2-binding antibody BB7.2 on peptide loaded T2 cells and MFI of unloaded T2 cells (>1). T2 cells were incubated with each of the specific antibodies followed by fluorophore-labeled detection antibodies (anti-kappa light chain or anti-Flag). The cells were fixed and fluorescence was measured by flow cytometry.

Row | Binder | binding result
3 | B3 | no binding
4 | B4 | binds
5 | B5 | no binding
6 | B6 | no binding
7 | B7 | no binding
8 | B8 | no binding

Molecular target: T3, control peptide 2 (…) displayed by HLA-A2 on T2 cells (human)
T3 construct: whole, on cells; also called Ctrl.2
Test: as above
Protocol: as §1, §2

Row | Binder | binding result
9 | B3 | binds
10 | B4 | binds
11 | B5 | binds
12 | B6 | no binding
13 | B7 | no binding
14 | B8 | no binding

Molecular target: T4, control peptide 3 (…) displayed by HLA-A2 on T2 cells (human)
T4 construct: whole, on cells; also called Ctrl.3
Test: as above
Protocol: as §1, §2

Row | Binder | binding result
15 | B6 | no binding
16 | B7 | no binding
17 | B8 | no binding

Molecular target: T1, HLA-A2/MAGE-A4 complex, recombinant …
Test: direct ELISA, plate coated with HLA-A2/MAGE-A4 complex, serial dilution of the antibody
Protocol: All available hits were evaluated for their ability to bind MAGE-A4/HLA-A2 complex and a control peptide/HLA-A2 complex in a direct binding ELISA assay. […] Briefly, 96 well ELISA plates were coated with purified human MAGE-A4/HLA-A2 complex or control HLA-A2 complex. Serial dilutions of antibody molecules were added to the plate and detected by an anti-kappa light chain-HRP (Invitrogen) or a purified rabbit anti-VHH (QVQ) followed by goat anti-rabbit IgG(H+L) HRP (Southern Biotech). […] 5B.

Row | Binder | binding result | EC50 (read off the curve) [µg/mL]
18 | B3 | binds | 
19 | B5 |  | ~0.02
20 | B6 |  | ~0.003
21 | B7 | binds | 
22 | B8 |  | ~1
